B1: [desHis^1, desPhe^6, hCys^9(SO3-), Phe^25, Leu^27] Glucagon-NH2 (peptide)
peptide: SQGTTS[Abu(4-SO3H)]YSKYLDSRRAQDFVQFLLNT-NH2
modifications: N-terminus assumed
SMILES: CC(C)C[C@H](NC(=O)[C@H](Cc1ccc(O)cc1)NC(=O)[C@H](CCCCN)NC(=O)[C@H](CO)NC(=O)[C@H](Cc1ccc(O)cc1)NC(=O)[C@H](CCS(=O)(=O)O)NC(=O)[C@H](CO)NC(=O)[C@@H](NC(=O)[C@@H](NC(=O)CNC(=O)[C@H](CCC(N)=O)NC(=O)[C@@H](N)CO)[C@@H](C)O)[C@@H](C)O)C(=O)N[C@@H](CC(=O)O)C(=O)N[C@@H](CO)C(=O)N[C@@H](CCCNC(=N)N)C(=O)N[C@@H](CCCNC(=N)N)C(=O)N[C@@H](C)C(=O)N[C@@H](CCC(N)=O)C(=O)N[C@@H](CC(=O)O)C(=O)N[C@@H](Cc1ccccc1)C(=O)N[C@H](C(=O)N[C@@H](CCC(N)=O)C(=O)N[C@@H](Cc1ccccc1)C(=O)N[C@@H](CC(C)C)C(=O)N[C@@H](CC(C)C)C(=O)N[C@@H](CC(N)=O)C(=O)N[C@H](C(N)=O)[C@@H](C)O)C(C)C
B2: [desHis^1, hCys^9(SO3-), Phe^25, Leu^27] Glucagon-NH2 (peptide)
peptide: SQGTFTS[Abu(4-SO3H)]YSKYLDSRRAQDFVQFLLNT-NH2
modifications: N-terminus assumed
SMILES: CC(C)C[C@H](NC(=O)[C@H](Cc1ccc(O)cc1)NC(=O)[C@H](CCCCN)NC(=O)[C@H](CO)NC(=O)[C@H](Cc1ccc(O)cc1)NC(=O)[C@H](CCS(=O)(=O)O)NC(=O)[C@H](CO)NC(=O)[C@@H](NC(=O)[C@H](Cc1ccccc1)NC(=O)[C@@H](NC(=O)CNC(=O)[C@H](CCC(N)=O)NC(=O)[C@@H](N)CO)[C@@H](C)O)[C@@H](C)O)C(=O)N[C@@H](CC(=O)O)C(=O)N[C@@H](CO)C(=O)N[C@@H](CCCNC(=N)N)C(=O)N[C@@H](CCCNC(=N)N)C(=O)N[C@@H](C)C(=O)N[C@@H](CCC(N)=O)C(=O)N[C@@H](CC(=O)O)C(=O)N[C@@H](Cc1ccccc1)C(=O)N[C@H](C(=O)N[C@@H](CCC(N)=O)C(=O)N[C@@H](Cc1ccccc1)C(=O)N[C@@H](CC(C)C)C(=O)N[C@@H](CC(C)C)C(=O)N[C@@H](CC(N)=O)C(=O)N[C@H](C(N)=O)[C@@H](C)O)C(C)C
B3: [desHis^1, Leu^4, hCys^9(SO3-), Phe^25, Leu^27] Glucagon-NH2 (peptide)
peptide: SQLTFTS[Abu(4-SO3H)]YSKYLDSRRAQDFVQFLLNT-NH2
modifications: N-terminus assumed
SMILES: CC(C)C[C@H](NC(=O)[C@H](Cc1ccc(O)cc1)NC(=O)[C@H](CCCCN)NC(=O)[C@H](CO)NC(=O)[C@H](Cc1ccc(O)cc1)NC(=O)[C@H](CCS(=O)(=O)O)NC(=O)[C@H](CO)NC(=O)[C@@H](NC(=O)[C@H](Cc1ccccc1)NC(=O)[C@@H](NC(=O)[C@H](CC(C)C)NC(=O)[C@H](CCC(N)=O)NC(=O)[C@@H](N)CO)[C@@H](C)O)[C@@H](C)O)C(=O)N[C@@H](CC(=O)O)C(=O)N[C@@H](CO)C(=O)N[C@@H](CCCNC(=N)N)C(=O)N[C@@H](CCCNC(=N)N)C(=O)N[C@@H](C)C(=O)N[C@@H](CCC(N)=O)C(=O)N[C@@H](CC(=O)O)C(=O)N[C@@H](Cc1ccccc1)C(=O)N[C@H](C(=O)N[C@@H](CCC(N)=O)C(=O)N[C@@H](Cc1ccccc1)C(=O)N[C@@H](CC(C)C)C(=O)N[C@@H](CC(C)C)C(=O)N[C@@H](CC(N)=O)C(=O)N[C@H](C(N)=O)[C@@H](C)O)C(C)C
B4: [hGlu^9]Glucagon(aa6-29)-NH2 (peptide)
peptide: FTS[Aad]YSKYLDSRRAQDFVQWLMNT-NH2
modifications: N-terminus assumed
SMILES: CSCC[C@H](NC(=O)[C@H](CC(C)C)NC(=O)[C@H](Cc1c[nH]c2ccccc12)NC(=O)[C@H](CCC(N)=O)NC(=O)[C@@H](NC(=O)[C@H](Cc1ccccc1)NC(=O)[C@H](CC(=O)O)NC(=O)[C@H](CCC(N)=O)NC(=O)[C@H](C)NC(=O)[C@H](CCCNC(=N)N)NC(=O)[C@H](CCCNC(=N)N)NC(=O)[C@H](CO)NC(=O)[C@H](CC(=O)O)NC(=O)[C@H](CC(C)C)NC(=O)[C@H](Cc1ccc(O)cc1)NC(=O)[C@H](CCCCN)NC(=O)[C@H](CO)NC(=O)[C@H](Cc1ccc(O)cc1)NC(=O)[C@H](CCCC(=O)O)NC(=O)[C@H](CO)NC(=O)[C@@H](NC(=O)[C@@H](N)Cc1ccccc1)[C@@H](C)O)C(C)C)C(=O)N[C@@H](CC(N)=O)C(=O)N[C@H](C(N)=O)[C@@H](C)O
B5: [PLA6, D9]Glucagon(aa6-29)-COOH (peptide)
peptide: [PhLac]TSDYSKYLDSRRAQDFVQWLMNT-OH
modifications: N-terminus assumed
SMILES: CSCC[C@H](NC(=O)[C@H](CC(C)C)NC(=O)[C@H](Cc1c[nH]c2ccccc12)NC(=O)[C@H](CCC(N)=O)NC(=O)[C@@H](NC(=O)[C@H](Cc1ccccc1)NC(=O)[C@H](CC(=O)O)NC(=O)[C@H](CCC(N)=O)NC(=O)[C@H](C)NC(=O)[C@H](CCCNC(=N)N)NC(=O)[C@H](CCCNC(=N)N)NC(=O)[C@H](CO)NC(=O)[C@H](CC(=O)O)NC(=O)[C@H](CC(C)C)NC(=O)[C@H](Cc1ccc(O)cc1)NC(=O)[C@H](CCCCN)NC(=O)[C@H](CO)NC(=O)[C@H](Cc1ccc(O)cc1)NC(=O)[C@H](CC(=O)O)NC(=O)[C@H](CO)NC(=O)[C@@H](NC(=O)[C@@H](O)Cc1ccccc1)[C@@H](C)O)C(C)C)C(=O)N[C@@H](CC(N)=O)C(=O)N[C@H](C(=O)O)[C@@H](C)O

Values joined by “and” are separate entries in the source; they are usually repeats but may differ in a detail not shown here. Equal values may be shown once. Square brackets hold non-standard residues; d marks the D form. Primed or numbered codes have the meaning given here. Ends that are not written are not given here. mPEG‑MAL 20 kDa = maleimido methoxyPEG of about 20 kDa, linked to the Cys sulfur; mPEG‑MAL 5 kDa = maleimido methoxyPEG of about 5 kDa, linked to the Cys sulfur; Abu(4-SO3H) = N[C@@H](CCS(=O)(=O)O)C(=O)O; PhLac = O=C(O)[C@@H](O)Cc1ccccc1; Aad = N[C@@H](CCCC(=O)O)C(=O)O; CH2CH2COOH′ = not defined here

T1 sequence (P47871 26-477): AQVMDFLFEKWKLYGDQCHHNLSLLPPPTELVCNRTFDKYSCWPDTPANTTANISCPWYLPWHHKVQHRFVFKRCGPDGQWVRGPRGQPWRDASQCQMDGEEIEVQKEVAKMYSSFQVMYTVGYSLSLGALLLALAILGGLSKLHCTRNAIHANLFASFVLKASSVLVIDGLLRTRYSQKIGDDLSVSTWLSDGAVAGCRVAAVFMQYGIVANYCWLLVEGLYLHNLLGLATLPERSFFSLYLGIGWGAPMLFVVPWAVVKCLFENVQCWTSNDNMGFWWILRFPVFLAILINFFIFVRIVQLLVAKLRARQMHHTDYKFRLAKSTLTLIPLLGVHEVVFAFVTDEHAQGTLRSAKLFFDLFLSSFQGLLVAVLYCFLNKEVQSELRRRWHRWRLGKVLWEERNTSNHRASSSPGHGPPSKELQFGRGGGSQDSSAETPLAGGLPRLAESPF

The first assay concerns the target T1, human glucagon receptor (human, UniProt P47871 26-477). As to the kind of experiment: cell-based or functional assay.
Take “Oxyntomodulin C24 (from UniProt P01275 53-89) (peptide)”: the cAMP Induction EC50 came out at 2.54 nM.

In turn, “[d-Cys5(20kDaPEG), E9]Glucagon(aa5-29) -NH2 (peptide)” registered an IC50 (nM) (cAMP, inhibit 0.2 mM Glucagon) of 14800 nM.

“Oxyntomodulin C24 PEG 20 K (from UniProt P01275 53-89) (peptide)”: the cAMP Induction EC50 stood at 0.97 nM.

As for “Oxyntomodulin (from UniProt P01275 53-89) (peptide)”, the cAMP Induction EC50 was 3.25 nM.

The next assay has as its target T1, human glucagon receptor. As to the kind of experiment: cell-based or functional assay. This is another data set of the same source.
With B1, the “cAMP Induction EC50” value turned out to be 3210 nM and the “cAMP Inhibition IC50” value was found to be 9220 nM.

In the case of B2, the “cAMP Induction EC50” value stood at 430 nM.

Regarding SQGTFTSEYSKYLDSRRAQDFVQFLLNT-NH2 [[desHis^1, Glu^9, Phe^25, Leu^27]Glucagon-NH2], the “cAMP Induction EC50” value is 81 nM.

For SQLTFTSEYSKYLDSRRAQDFVQWLMNT-NH2 [[desHis^1, Leu^4, Glu^9] Glucagon-NH2], the “cAMP Induction EC50” value stood at 318 nM and the “cAMP Inhibition IC50” value was 102 nM.

Consider B3, for which the “cAMP Induction EC50” value was found to be 1610 nM and the “cAMP Inhibition IC50” value is 4460 nM.

The next assay concerns the target T1, human glucagon receptor. Put plainly: cell-based or functional assay. This is another data set of the same source.
For FTSDYSKYLDSRRAQDFVQWLMNT-NH2 [Glucagon(aa6-29)-NH2], the “cAMP (I/A)50, inhibition index” value is 1730 ratio.

Take FTSKYSKYLDSRRAQDFVQWLMNT-NH2 [[Lys^9]Glucagon(aa6-29)-NH2]: the “cAMP (I/A)50, inhibition index” value worked out at 1990 ratio.

Take FTSC(CH2CH2COOH′)YSKYLDSRRAQDFVQWLMNT-NH2 [[(CSA-2)^9]Glucagon(aa6-29)-NH2]: the “cAMP (I/A)50, inhibition index” value was determined as 580 ratio.

Take FTSC(CH2COOH)YSKYLDSRRAQDFVQWLMNT-NH2 [[(CSA-1)^9]Glucagon(aa6-29)-NH2]: the “cAMP (I/A)50, inhibition index” value was 506 ratio.

As for B4, the “cAMP (I/A)50, inhibition index” value came out at 2360 ratio.

The target in a further assay is T1, human glucagon receptor. As to the kind of experiment: cell-based or functional assay. This is another data set of the same source.
Take FTSDYSKYLDSRRAQDFVQWLMNT-NH2 [Glucagon(aa6-29)-NH2]: the “cAMP IC50” value came out at 346 nM.

In the case of FTSKYSKYLDSRRAQDFVQWLMNT-NH2 [[Lys^9]Glucagon(aa6-29)-NH2], the “cAMP IC50” value turned out to be 398 nM.

For FTSC(CH2CH2COOH′)YSKYLDSRRAQDFVQWLMNT-NH2 [[(CSA-2)^9]Glucagon(aa6-29)-NH2], the “cAMP IC50” value was found to be 116 nM.

Turning to FTSC(CH2COOH)YSKYLDSRRAQDFVQWLMNT-NH2 [[(CSA-1)^9]Glucagon(aa6-29)-NH2], the “cAMP IC50” value was found to be 101 nM.

With B4, the “cAMP IC50” value came to 472 nM.

For the next assay, the target named is T1, human glucagon receptor. As to the kind of experiment: cell-based or functional assay. The source holds these as a separate data set.
As to B5, the “IC50 (nM) (cAMP, inhibit Glucagon) 0.1 nM or 0.2 nM” value amounted to 13.2 nM.

For the next assay, the target named is T1, human glucagon receptor. Put plainly: cell-based or functional assay. This is another data set of the same source.
For the molecule C(20 kDa PEG)FTSEYSKYLDSRRAQDFVQWLMNT-NH2 [[C5(20kDaPEG), E9]Glucagon(aa5-29) -NH2], the “IC50 (nM) (cAMP, inhibit 0.2 mM Glucagon)” value is 976 nM.

In the case of C(3.4 kDa PEG)FTSEYSKYLDSRRAQDFVQWLMNT-NH2 (also: dimer: the two Cys5 joined by 3.4 kDa PEG) [3.4kDaPEG-dimer[C5, E9]Glucagon(aa5-29) -NH2], the “IC50 (nM) (cAMP, inhibit 0.2 mM Glucagon)” value amounted to 1340 nM.

C(5 kDa PEG)FTSEYSKYLDSRRAQDFVQWLMNT-NH2 [[C5(5kDaPEG), E9]Glucagon(aa5-29) -NH2]: the “IC50 (nM) (cAMP, inhibit 0.2 mM Glucagon)” value was determined as 1610 nM.

As for C(1.2 kDa PEG)FTSEYSKYLDSRRAQDFVQWLMNT-NH2 [[C5(1.2kDaPEG), E9]Glucagon(aa5-29) -NH2], the “IC50 (nM) (cAMP, inhibit 0.2 mM Glucagon)” value came to 2280 nM.

As for [PhLac]TC(mPEG‑MAL 5 kDa)EYSKYLDSRRAQDFVQWLMNT-NH2 [[PLA6, C8(5kDaPEG), E9]Glucagon(aa6-29) -NH2], the “IC50 (nM) (cAMP, inhibit 0.2 mM Glucagon)” value was 216 nM.

Regarding [PhLac]TC(mPEG‑MAL 20 kDa)EYSKYLDSRRAQDFVQWLMNT-NH2 [[PLA6, C8(20kDaPEG), E9]Glucagon(aa6-29)-NH2], the “IC50 (nM) (cAMP, inhibit 0.2 mM Glucagon)” value is 236 nM and 92 nM.

On to [PhLac]TSEYSKYLDSRRAQDFVC(m‑dPEG24‑MAL)WLMNT-NH2 [[PLA6, E9 ,C24(1.2 kDaPEG)]Glucagon(aa6-29) -NH2], for which the “IC50 (nM) (cAMP, inhibit 0.2 mM Glucagon)” value is 18 nM.

On to [PhLac]TSEYC(mPEG‑MAL 20 kDa)KYLDSRRAQDFVQWLMNT-NH2 [[PLA6, E9, C11(20kDaPEG)]Glucagon(aa6-29)-NH2], for which the “IC50 (nM) (cAMP, inhibit 0.2 mM Glucagon)” value is 664 nM.

For the molecule [PhLac]TSEYSKYLDSRRAQDFVC(mPEG‑MAL 20 kDa)WLMNT-NH2 [[PLA6, E9, C24(20kDaPEG)]Glucagon(aa6-29)-NH2], the “IC50 (nM) (cAMP, inhibit 0.2 mM Glucagon)” value was 126 nM.

Source of the values: patent US20120122783A1 (INDIANA UNIVERSITY RESEARCH AND TECHOLOGY, published 2012).
